Laboratory results taken from patent US10881612B2, “Cationic liposomes for cancer immunotherapy” (The Methodist Hospital, priority 2015, dated 2021).

B1: IL-12: Recombinant mouse IL-12 purchased from R&D Systems (protein, UniProt P43431 23-215; P43432 23-335, looked up)
Interleukin-12 subunit alpha: RVIPVSGPARCLSQSRNLLKTTDDMVKTAREKLKHYSCTAEDIDHEDITRDQTSTLKTCLPLELHKNESCLATRETSSTTRGSCLPPQKTSLMMTLCLGSIYEDLKMYQTEFQAINAALQNHNHQQIILDKGMLVAIDELMQSLNHNGETLRQKPPVGEADPYRVKMKLCILLHAFSTRVVTINRVMGYLSSA
Interleukin-12 subunit beta: MWELEKDVYVVEVDWTPDAPGETVNLTCDTPEEDDITWTSDQRHGVIGSGKTLTITVKEFLDAGQYTCHKGGETLSHSHLLLHKKENGIWSTEILKNFKNKTFLKCEAPNYSGRFTCSWLVQRNMDLKFNIKSSSSSPDSRAVTCGMASLSAEKVTLDQRDYEKYSVSCQEDVTCPTAEETLPIELALEARQQNKYENYSTSFFIRDIIKPDPPKNLQMKPLKNSQVEVSWEYPDSWSTPHSYFSLKFFVRIQRKKEKMKETEEGCNQKGAFLVEKTSTEVQCKGGNVCVQAQDRYYNSSCSKWACVPCRVRS

What was measured:
[1] = system: 4T1 orthotopic breast tumors; assay: Therapeutic efficacy study, intratumoral injection; format: in vivo, BALB/c mice; conditions: intratumoral injection once a week for two weeks
Procedure: Breast cancer tumors were established in BALB/c mice by intramammary injection of 1×10^5 4T1-luciferase cells. When tumors reached a median size of 100-200 mm^3, mice were administered intratumoral injections as follows: PBS control, Free MPL (6.25 μg), control liposomes (50 μL; 1 mg lipid); MPL liposomes (50 μL), and IL-12 (5 μg) with/without MPL liposomes. Tumor growth was monitored by caliper measurements three times per week and by luciferase expression measured weekly using the Xenogen IVIS-200 System (Perkin Elmer Inc., Waltham, Mass., USA) following intra-peritoneal injection of 75 mg/kg RediJect D-Luciferin (Perkin Elmer Inc.), 24-26 days after initiation of tumor growth, mice were sacrificed, blood was collected by retro-orbital bleeding, and tumor and spleen were collected for immunohistochemical, weight, and size analysis. Dual tumors were grown in naïve mice using the same experimental conditions with intratumoral injection of particles limited to a single tumor.
Breast cancer tumors were established in BALB/c mice by intramammary injection of 1×10^5 4T1-luciferase cells. When tumors reached a median size of 100-200 mm^3, mice were administered intratumoral injections as follows: PBS control. Free MPL (6.25 μg), control liposomes (50 μL; 1 mg lipid): MPL liposomes (50 μL), and IL-12 (5 μg) with/without MPL liposomes. […]

4T1 breast cancer cells = assay: Cytotoxicity of cationic liposomes by propidium iodide flow cytometry; format: cell-based, mouse; conditions: 4T1 cells, 4 μg/mL liposomes or free MPL (250 ng), 24 hours, n=3
Procedure: (§1) The cytotoxicity of cationic liposomes to 4T1 breast cancer cells was evaluated by flow cytometry using propodium iodide (PI). Using a 24 well plate format, cells were treated with 4 μg control or MPL liposomes, or free MPL (250 ng) for 24 hours. Cells were released using trypsin and treated with PI according to manufacturer's protocol (Invitrogen). Samples were analyzed using a LSR II™ Flow Cytometer (BD Biosciences, Mountain View, Calif., USA) equipped with […] ™ software (2007). In vivo tumor cytotoxicity of cationic liposomes was evaluated in BALB/c mice bearing 200 mm^3 4T1 tumors 24 hours following intratumoral injection of liposomes (50 μL; 1 mg lipid). […]
(§2) The cytotoxicity of cationic liposomes to 4T1 breast cancer cells was evaluated by flow cytometry using propidium iodide (PI). […] Samples were analyzed using a LSR II® Flow Cytometer (BD Biosciences. Mountain View, Calif., USA) equipped with […] ™ software (2007). In vivo tumor cytotoxicity of cationic liposomes was evaluated in BALB/c mice bearing 200 mm^3 4T1 tumors 24 hr following intratumoral injection of liposomes (50 μL; 1 mg lipid). Excised tumors were embedded in paraffin, sectioned, and stained with hematoxylin/eosin, or analyzed for apoptosis using the DeadEnd® Fluorometric TUNEL System (Promega Corp., Madison. Wis., USA).

4T1 tumors [2] = assay: In vivo tumor cytotoxicity (H&E and TUNEL staining) after intratumoral injection; conditions: 24 hours after intratumoral injection
Procedure: as §1, §2

4T1 tumor [3] = assay: Immune phenotyping of tumor immunocytes by flow; format: in vivo, murine; conditions: 24 hours after treatment, preliminary
4T1 tumors [4] = assay: Immunofluorescence of tumor sections (cellular phenotype of tumor microenvironment); format: in vivo, BALB/c mice
Procedure: Tissues were quick frozen in OCT (Tissue-Tek) and stored at −80° C. Tissue sections (10 μm) were fixed with ice-cold acetone for 15 minutes at −20° C. and washed three times with IX PBS using trays followed by blocking with 5% fetal bovine serum in PBS. Fluorescence-labeled antibodies [e-flour 615 CD8 (clone 53-6.7; 1:50), e-flour 570 Ki-67 (clone solA15: 1:100; eBioscience, San Diego, Calif., USA); FITC F4/80 (MCA497A488; 1:100), Alexa Fluor 647 CD204 (MCA1322; 1:100, AbD Serotec, Raleigh N.C., USA); and 33D1 (1:100, BD Biosciences, San Jose. Calif.: 1:500 secondary anti-rat IgG Alexa Fluor® 546; Invitrogen) and iNOS (6/iNOS/NOS; 1:100 BD Biosciences, San Jose, Calif., USA; 1:500 anti-rabbit IgG-TRITC, Jackson Immunoresearch Labs, Inc. West Grove, Pa., USA)] were incubated with tissues overnight at 4° C. in the presence of 5% FBS. Slides were then washed three times with PBS and mounted with ProLong® Gold AntiFade with DAPI (Invitrogen). Images were taken using an A1 Nikon confocal microscope and the percent positive cells were determined by manual counting of four arbitrary regions in random samples.
Tissues were quick frozen in OCT (Tissue-Tek) and stored at −80° C. Tissue sections (10 μm) were fixed with ice-cold acetone for 15 min at −20° C. and washed three times with 1×PBS using trays followed by blocking with 5% fetal bovine serum in PBS. Fluorescently-labeled antibodies [eFluor® 615 CD8 (clone 53-6.7; 1:50), eFluor® 570 Ki-67 (clone solA15; 1:100; eBioscience, San Diego, Calif. USA); FITC F4/80 (MCA497A488; 1:100), Alexa-Fluor® 647 CD204 (MCA1322; 1:100, AbD Serotec, Raleigh N.C. USA); and 33D1 (1:100, BD Biosciences, San Jose, Calif.; 1:500 secondary anti-rat IgG Alexa-Fluor® 546: Invitrogen) and iNOS (6/iNOS/NOS; 1:100 BD Biosciences. San Jose. Calif., USA; 1:500 anti-rabbit IgG-TRITC. Jackson ImmunoResearch Laboratories. Inc., West Grove, Pa. USA)] were incubated with tissues overnight at 4° C. in the presence of 5% FBS. Slides were then washed three times with PBS and mounted with ProLong® Gold AntiFade® with DAPI (Invitrogen). Images were obtained using a confocal microscope (A1 Nikon), and the percent-positive cells were determined by manual counting of four arbitrary regions in random samples.

4T1 tumor [5] = assay: V-sense 19F MRI / confocal tracking of macrophage infiltration into tumor; format: in vivo, mice; conditions: after IL-12 intratumoral injection, tumors extracted 24 hours post imaging
Description: Macrophage accumulation has been documented to contribute to cancer progression through suppression of the immune response and promotion of tumor vascularization (Mielgo et al., 2013). V-sense is a perfluorocarbon emulsion that is taken up by monocytes and macrophages, allowing for in-vivo detection through ^19F MRI. Ahrens, et al. (2011) successfully quantified V-sense in inflamed tissues of the central nervous system in an ex-vivo model of allergic encephalomyelitis, which they correlated with immunohistochemistry to confirm co-localization of V-sense emulsion droplets and macrophages. Hitchens et al. (2011) detected perfluorocarbon-labeled macrophages in a model of cardiac allograft rejection, which was confirmed via immunohistochemistry and histology. V-sense was used to study the impact of IL-12 on macrophage infiltration into the tumor (FIG. 8). […] Confocal images in FIG. 8B show V-sense (red) uptake by Celltracker™ Green RAW cells.

serum cytokines = assay: Multiplex bead ELISA of serum cytokines; format: in vivo, BALB/c mice; conditions: 5 hours after intratumoral injection
Procedure: Serum cytokines were analyzed 5 hours after intratumoral injection of liposomes using a mouse cytokine magnetic 10-plex panel kit (Invitrogen, Carlsbad, Calif., USA) for the Luminex® platform. Following retro-orbital eye bleed, plasma was collected by centrifugation at 1500 g for 10 minutes at 4° C. and stored at −80° C. Plates were prepared using 25 μL/well of the antibody-bound head. After 2 washes, 50 μL serum and 50 μL assay diluent (or 100 μL standard) were added and plates were incubated at room temperature for 2 hours on an orbital shaker. After two washes, 100 μL of biotinylated detector antibody was added to the heads and they were incubated for an additional hour, followed by two more washes and the addition of 100 μL streptavidin-RPE for 30 minutes. After a final two washes, beads were suspended in 125 μL wash solution and inserted into the XY platform of a Luminex MAGPIX Instrument (EMD Millipore, Billerica, Mass. USA). The assay protocol was designed using xPONENT software and samples were run at 100 events/bead region.
Multiplex Bead ELISA. Serum cytokines were analyzed 5 hr after intratumoral injection of liposomes using a mouse cytokine magnetic 10-plex panel kit (Invitrogen, Carlsbad, Calif. USA) for the Luminex® platform. Following retro-orbital eye bleed, plasma was collected by centrifugation at 1500×g for 10 min at 4° C. and stored at −80° C. […]

Row | Molecule | tumor growth (caliper measurements) [1] | cell death (propidium iodide uptake) (4T1 breast cancer cells) | cell death in tumor (TUNEL staining) (4T1 tumors [2]) | CD4+ T cells in the tumor (4T1 tumor [3]) | CD8+ T cells in the tumor (4T1 tumor [3]) | MDSC in the tumor (4T1 tumor [3]) | CD8+ (cytolytic) T cells in the tumor (change) (4T1 tumors [4]; mouse, in vivo) | F4/80+ macrophages in the tumor (change) (4T1 tumors [4]; mouse, in vivo) | iNOS in tumors (change) (4T1 tumors [4]; mouse, in vivo) | increase in iNOS (nitric oxide synthase) expression in the tumor above basal levels (4T1 tumors [4]; mouse, in vivo) | 33D1+ dendritic cells in the tumor (change) (4T1 tumors [4]; tumor sections, immunofluorescence) | V-sense signal distribution in tumor (macrophage infiltration) (4T1 tumor [5]) | serum IFN-γ (serum cytokines)
1 | monophosphoryl lipid A [free MPL] | did not slow tumor growth | 16% | Minimal cell death | – | – | – | – | – | – | – | – | – | –
2 | B1 | – | – | – | increases | increases | decreases | increased | increased | enhancing production | 3 fold | increased | strong penetration of V-sense signal into tumor tissue | increase
